Patent US20260250404A1

Target: human FcγRIa on the cell surface (transfected CHO-S cells, M0/M1 macrophages, hMDM, FcγRI effector reporter cells) (human) (UniProt P12314)
Test: flow cytometry on CHO-S cells transiently expressing human FcγRIa, PE goat anti-human IgG F(ab')2, % PE+ cells

human FcγRIa on the cell surface (transfected CHO-S cells, M0/M1 macrophages, hMDM, FcγRI effector reporter cells) (human), sequence (P12314 16-374): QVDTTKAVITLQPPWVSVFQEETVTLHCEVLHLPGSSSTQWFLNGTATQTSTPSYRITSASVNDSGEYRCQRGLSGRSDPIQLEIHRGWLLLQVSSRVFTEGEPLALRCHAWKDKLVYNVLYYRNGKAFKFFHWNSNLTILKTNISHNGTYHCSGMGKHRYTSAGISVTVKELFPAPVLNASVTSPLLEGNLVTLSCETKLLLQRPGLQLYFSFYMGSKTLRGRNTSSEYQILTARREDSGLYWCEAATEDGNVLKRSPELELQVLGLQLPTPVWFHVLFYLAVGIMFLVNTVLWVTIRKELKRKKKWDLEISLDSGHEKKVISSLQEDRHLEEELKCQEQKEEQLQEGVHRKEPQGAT

**Q.** With cemiplimab (antibody) as the substance, how does the EC50 (read off the curve) read?
**A.** 0.3 µg/mL
